The values that follow come from paper PMC3458557.

The labels stand for the following.
T1: GST-Rho-N-Strep (RHON1 C-terminal Rho-N domain) (Arabidopsis thaliana, UniProt Q94K75 362-401)
T1 chain: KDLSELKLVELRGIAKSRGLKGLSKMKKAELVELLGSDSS

B1: 23S-4.5Sa dsRNA (dsRNA)
RNA 1: UUCCUCUAUUUGUUCGAUAGGGGAGAUUCCGACUUCCCCAGAGCCUCCGGUAGCACAGCCGAGACAGCAACGGGUUCUCCGCCCCUGCGGGGAUG
RNA 2: CAUCCCCGCAGGGGCGGAGAACCCGUUGCUGUCUCGGCUGUGCUACCGGAGGCUCUGGGGAAGUCGGAAUCUCCCCUAUCGAACAAAUAGAGGAA
B2: petB 3' UTR (ssRNA)
RNA: GACUGAAGCUAACUUUGGUUGGUUAAUCCGAUCAGUUCAUCGAUGGUCGGCAAGUAUGAUGGUCCUAAUG
B3: petB 5' UTR (ssRNA)
RNA: GGUAGUUCGACCGCGAAAUUUUUUUCUGCAUUGUAUAUUUCCGGAAUAUGAGUGUGUGACUUGUUAGAAU

The target of this data set is T1, GST-Rho-N-Strep (RHON1 C-terminal Rho-N …). Put plainly: EMSA. For orientation: A gel shift assay detects complexes by their altered migration in electrophoresis.
On to B1, for which the binding result is reported as “no binding”. For the molecule B2, the binding result is recorded as “binds”. Under UUCUAGUACAACUAUUGCAGUAGAAUGACAA (ssRNA) [petA 5' UTR 31-mer] stands “no binding”. Regarding B3, the binding result is “binds”.
